Where no end group is shown, it is not given here.
Molecular target: Cdk2/cyclin A complex (human, UniProt P24941 1-298; P20248 173-432)
Test: fluorescence polarisation; fluorescence anisotropy; Cdk2/cyclin A binding to p27-D2-FL (20 nM); 25 °C; 20 mM Na phosphate, pH 7, 200 mM NaCl, 3.5 mM TCEP; non-linear regression on the average of three experiments
Settings: both partners purified

B1: p27-D2-FL (p27-D2-C99S-R93C labeled with Alexa Fluor 488) (domain or fragment)
chain: RKWNFDFQNHKPLEGKYEWQEVEKGSLPEFYYRPPC(Alexa Fluor 488 C5‑maleimide)PPKGASKVPAQE
notes: p27Kip1 (p27; CDKN1B), human, D2 sub-domain construct, residues 58-105; Cloned in pET28a; also called single-cysteine mutant of p27-D2; source: conjugated with Alexa Fluor488-C5-Maleimide and purified again by HPLC; not shown: 6xHis, N-terminal, cleaved
- Kd: 73 ± 8 nM

From paper PMC4623604, “Discovery of Small Molecules that Inhibit the Disordered Protein, p27^Kip1” (Scientific Reports, 2015)
